The results in this text go back to PMC3254808 (Biochemistry, 2011).

Substrate in data set [1]: OC(CS)C(O)CS
Nature of the data set: oxygen electrode. Type of data set: biochemical, Saccharomyces cerevisiae. To be noted: O2 as co-substrate, 50 mM Tris/HCl, 0.3 mM EDTA, pH 7.5, 25 °C.

Data set [2] deals with the molecule itself. The data set is described as follows: cross-linking.

B1: Erv2p (Saccharomyces cerevisiae S288C) (protein)
chain: MKQIVKRSHAIRIVAALGIIGLWMFFSSNELSIATPGLIKAKSGIDEVQGAAAEKNDARLKEIEKQTIMPLMGDDKVKKEVGRASWKYFHTLLARFPDEPTPEEREKLHTFIGLYAELYPCGECSYHFVKLIEKYPVQTSSRTAAAMWGCHIHNKVNEYLKKDIYDCATILEDYDCGCSDSDGKRVSLEKEAKQHG
Take B1: in data set [1], the Km came out at 7 ± 1 mM and the kcat was found to be 3.83 ± 0.13 s⁻¹.

B2: Erv2p, wild type (enzyme, yeast, UniProt Q12284 1-196, looked up)
chain: PGLIKAKSGIDEVQGAAAEKNDARLKEIEKQTIMPLMGDDKVKKEVGRASWKYFHTLLARFPDEPTPEEREKLHTFIGLYAELYPCGECSYHFVKLIEKYPVQTSSRTAAAMWGCHIHNKVNEYLKKDIYDCATILEDYDCGCSDSDGKRVSLEKEAKQHG
Consider B2, for which, in data set [2], the “stoichiometry N” value is 2.

One may read the Km as the concentration of substrate that gives half-maximal velocity. In general, kcat refers to the number of substrate molecules converted per active site and unit of time at saturation. By stoichiometry N is commonly meant a count of units in the complex or per binding partner.
